Target: H5N1 A/Vietnam/1203/2004 HA1 (1-330) protein from 293 Flp-In cells (influenza A virus A/Vietnam/1203/2004 (H5N1))
Assay: SEC

H5N1 A/Vietnam/1203/2004 HA1 (1-330) protein from 293 Flp-In cells (domain or fragment)
stoichiometry N: 3

— PMC3046144
